This note sets out measurements from patent US20030105024A1 (STATE OF OREGON, published 2003).

B2: rat melanocortin-3 receptor (receptor)
chain: MNSSCCPSSSYPTLPNLSQHPAAPSASNRSGSGFCEQVFIKPEVFLALGIVSLMENILVILAVVRNGNLHSPMYFFLLSLLQADLLVSLSNSLETIMIVVINSDSLTLEDQFIQHMDNIFDSMICISLVASICNLLAIAVDRYVTIFYALRYHSIMTVRKALSLIVAIWVCCGICGVMFIVYSESKMVIVCLITMFFAMVLLMGTLYIHMFLFARLHVQRIAALPPADGLAPQQHSCMKGAVTITILLGVFIFCWAPFFLHLVLIITCPTNPYCICYTAHFNTYLVLIMCNSVIDPLIYAFRSLELRNTFKEILCGCNGMNVG
notes: Stably expressed in human 293 cells from pcDNA/neo I; also called rat MC-3 receptor; rat MC3-R

Test [1] deals with human MC-3 receptor (human) (UniProt P41968). Description: cell-based or functional assay.
Test [2] concerns the target B2. Description: cell-based or functional assay.
Test [3] has as its target mouse MC-5 melanocortin receptor (mouse) (UniProt P41149). The test can be described thus: cell-based or functional assay.
The target of test [4] is T1, mouse αMSH (MC-1) receptor (mouse) (UniProt Q01727).
T1 sequence: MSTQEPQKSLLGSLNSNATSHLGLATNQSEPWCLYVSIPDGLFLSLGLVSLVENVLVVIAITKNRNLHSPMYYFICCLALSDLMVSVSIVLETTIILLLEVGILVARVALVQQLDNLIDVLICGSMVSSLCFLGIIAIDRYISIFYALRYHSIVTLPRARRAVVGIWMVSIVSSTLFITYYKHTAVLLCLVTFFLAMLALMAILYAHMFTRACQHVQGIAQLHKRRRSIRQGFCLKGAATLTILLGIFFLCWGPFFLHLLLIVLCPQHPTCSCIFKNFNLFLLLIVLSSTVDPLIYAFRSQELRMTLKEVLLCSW
The test can be described thus: cell-based or functional assay.

Test [5] addresses T2, human melanocortin 4 receptor (human, UniProt P32245 1-332).
T2 chain: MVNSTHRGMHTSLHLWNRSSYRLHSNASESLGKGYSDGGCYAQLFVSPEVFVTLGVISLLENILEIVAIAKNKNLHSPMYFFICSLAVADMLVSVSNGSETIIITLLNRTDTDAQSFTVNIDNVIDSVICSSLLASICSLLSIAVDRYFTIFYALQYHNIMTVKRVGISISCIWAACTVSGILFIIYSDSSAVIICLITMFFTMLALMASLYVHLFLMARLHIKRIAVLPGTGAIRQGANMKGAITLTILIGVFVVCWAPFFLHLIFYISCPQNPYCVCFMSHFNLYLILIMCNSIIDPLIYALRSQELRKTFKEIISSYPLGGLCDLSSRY
Description: cell-based or functional assay.

The target in test [6] is B2. The test can be described thus: competition with 125I-NDP-MSH on suspended 293 cells expressing rat MC-3 receptor.
A further test deals with T3, murine agouti peptide (mouse, UniProt Q03288 23-131, limits assumed).
T3 construct: Preparation was not homogeneous; also called endogenous mouse agouti peptide
T3 sequence (looked up): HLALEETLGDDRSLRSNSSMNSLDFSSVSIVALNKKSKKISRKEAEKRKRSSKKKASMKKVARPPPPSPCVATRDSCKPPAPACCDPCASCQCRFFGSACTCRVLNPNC
The test can be described thus: competition with 125I-[Nle^4, D-Phe^7]α-MSH on 293 cells expressing rat MC-3 receptor; results not shown.

No end group written: not given here. A value given as a limit tells only on which side of the number the result lay.

By Ki is commonly meant the dissociation constant of the complex between target and ligand, obtained from inhibition or displacement. Read a low Ki as higher affinity.

Chain of human MC-3 receptor (human) (P41968 whole entry): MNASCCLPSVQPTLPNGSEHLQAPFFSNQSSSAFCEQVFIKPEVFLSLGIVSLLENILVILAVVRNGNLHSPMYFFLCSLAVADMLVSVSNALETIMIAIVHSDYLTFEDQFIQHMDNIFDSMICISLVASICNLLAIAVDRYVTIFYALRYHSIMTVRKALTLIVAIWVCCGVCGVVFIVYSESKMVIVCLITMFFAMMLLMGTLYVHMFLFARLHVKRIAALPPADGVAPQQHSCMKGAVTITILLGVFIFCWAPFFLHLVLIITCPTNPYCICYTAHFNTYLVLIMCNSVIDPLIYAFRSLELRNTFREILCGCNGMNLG
Chain of mouse MC-5 melanocortin receptor (mouse) (P41149 whole entry): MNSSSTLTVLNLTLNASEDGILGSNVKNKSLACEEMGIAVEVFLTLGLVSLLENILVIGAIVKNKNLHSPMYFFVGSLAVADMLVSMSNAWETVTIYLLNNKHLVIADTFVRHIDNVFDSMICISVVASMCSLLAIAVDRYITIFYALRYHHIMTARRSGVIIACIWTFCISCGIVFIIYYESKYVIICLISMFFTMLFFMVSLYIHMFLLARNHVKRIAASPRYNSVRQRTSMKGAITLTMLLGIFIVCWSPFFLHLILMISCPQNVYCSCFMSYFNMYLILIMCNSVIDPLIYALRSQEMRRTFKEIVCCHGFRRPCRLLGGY

As for “SHU9119, Ac-Nle^4-cyclo(Asp^5, D-Nal(2)^7, Lys^10) αMSH-(4-10)-amide (from UniProt P01189 141-147) (peptide)”, in test [1], the pA2 (method of Schild) turned out to be 8.3.

Take “γ2-MSH (from UniProt P01189 77-88) (peptide)”: the Ec50, intracellular cAMP in test [2] is 3 nM.

“βMSH (from UniProt P01189 217-234) (peptide)” came in with an EC50, adenylate cyclase / cAMP-dependent β-galactosidase in test [3] of 5 nM.

Turning to “Nle^4, D-Phe^7-αMSH (from UniProt P01189 138-150) (peptide)”, the EC50, intracellular cAMP in test [4] was determined as 0.028 nM. For the same molecule, the Ec50, adenylate cyclase activity in test [5] turned out to be 11 pM.

In turn, “desacetyl-αMSH (from UniProt P01189 138-150) (peptide)” came in with an Ec50, intracellular cAMP in test [2] of 8 nM.

Turning to YVMGHFRWDRF (peptide, UniProt P01189 77-87, looked up, ends and bridges not checked) [γ1-MSH], the Ec50, intracellular cAMP in test [2] was found to be 3 nM.

Regarding MEHFRWG (peptide, UniProt P01189 141-147, looked up, domain: ACTH4-10) [ACTH4-10], in test [2], the “Ec50, intracellular cAMP” value stood at 100 nM. For the same molecule, the “Ec50, adenylate cyclase activity” value in test [5] is > 100000 pM.

The molecule YVMGHFRWDRFGRRNSSSSGSSGAGQ (peptide, UniProt P01189 77-102, looked up, ends and bridges not checked) [γ3-MSH] returned an Ec50, intracellular cAMP in test [2] of 6 nM.

Take SYSMEHFRWGKPV (peptide, UniProt P01189 138-150, looked up, ends and bridges not checked, domain: αMSH; also called αMSH; α-MSH) [α-melanocyte stimulating hormone]: the inhibitory constant (Ki) in test [6] is ~100 nM. The “Ec50, intracellular cAMP” value in test [2] was 4 nM.

B1: γ-melanocyte stimulating hormone (peptide, UniProt P01189 77-88, looked up)
peptide: YVMGHFRWDRFG
notes: domain: γMSH; Printed without an index; also called γMSH; γ-MSH
B1: the Ki in test [6] was ~50 nM.

On to B2, for which the binding result with murine agouti peptide is recorded as “binds”.

In the case of SYSMEHFRWGKPVGKKRRPVKVYPNGAEDESAEAFPLEF (peptide, UniProt P01189 138-176, looked up) [adrenocorticotropic hormone], the Ec50, intracellular cAMP in test [2] is 4 nM. The EC50, intracellular cAMP in test [4] came out at 8 nM. In addition, the Ec50, adenylate cyclase activity in test [5] stood at 680 pM.
